Test results published in the Immune Epitope Database (IEDB).

What was measured:
Assay in all cases: IEDB peptide-MHC binding, purified MHC/competitive/radioactivity; ≥ and ≤ were set here for values at or beyond the usual limits of such assays
Conditions in all cases: source organism: Bordetella pertussis
HLA-B*44:03 = target: HLA-B*44:03
HLA-A*02:01 = target: HLA-A*02:01
HLA-B*57:01 = target: HLA-B*57:01
HLA-B*35:01 = target: HLA-B*35:01
HLA-B*07:02 = target: HLA-B*07:02
HLA-B*53:01 = target: HLA-B*53:01

AEKVTTPAV
IC50 (HLA-B*44:03): 39.3 µM

AELQTYLRQ
IC50 (HLA-B*44:03): 1.83 µM

ALILAASPV
IC50 (HLA-A*02:01): 26.3 µM

AMQGAVVHL
IC50 (HLA-A*02:01): 2.65 µM | IC50 (HLA-B*44:03): 37.1 µM

AMTHLSPAL
IC50 (HLA-A*02:01): 0.162 µM

ATYIADSGF
IC50 (HLA-B*57:01): 4.17 µM

AVAAPAVGA
IC50 (HLA-A*02:01): ≥ 78.1 µM

KTNMVVTSV
IC50 (HLA-B*57:01): 4.37 µM

LAAQVTQRG
IC50 (HLA-B*57:01): 40.2 µM

LEAGRRFTH
IC50 (HLA-B*44:03): 44.2 µM

LMGPLQVNA
IC50 (HLA-A*02:01): 0.629 µM

LPEPVKLTL
IC50 (HLA-B*35:01): 69.9 µM

LPKPVTVKL
IC50 (HLA-B*07:02): 2.66 µM

SLADISLGA
IC50 (HLA-A*02:01): 0.0911 µM

YIWGLYPTY
IC50 (HLA-B*53:01): 48.1 µM
